Measured values: US11370837 (dated 2022)
Where a chain is given by its changes, count along the chain named.

T1: human TIGIT on CHO cells (human, UniProt Q495A1)
T1 chain: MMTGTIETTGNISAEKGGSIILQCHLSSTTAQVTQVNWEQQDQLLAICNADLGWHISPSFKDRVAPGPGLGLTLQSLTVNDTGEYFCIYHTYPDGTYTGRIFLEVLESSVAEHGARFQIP

T2: human TIGIT-his (human, UniProt Q495A1)
T2 chain: T1 chain

T3: mouse TIGIT-his (mouse, UniProt P86176)
T3 chain: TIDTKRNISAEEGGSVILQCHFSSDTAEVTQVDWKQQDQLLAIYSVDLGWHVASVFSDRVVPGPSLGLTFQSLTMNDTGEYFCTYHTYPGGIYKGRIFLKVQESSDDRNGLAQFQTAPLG

B1: ADI-30302 (antibody, V domains shown)
VH: QLQLQESGPGLVKPSETLSLTCTVSGGSIGSSQYYWGWIRQPPGKGLEWIGSIYRSGGTYYNPSLKSRVTISVDTSKNQFSLKLSSVTAADTAVYYCARDGLYHTPEYFQHWGQGTLVTVSS
VL: EIVLTQSPATLSLSPGERATLSCRASQSVSSYLAWYQQKPGQAPRLLIYDASNRATGIPARFSGSGSGTDFTLTISSLEPEDFAVYYCQQRFAFPYTFGGGTKVEIK
B2: ADI-27243 (antibody, V domains shown)
VH: B1 VH with G30S, Q33R, R55Y, G58S
VL: B1 VL
B3: ADI-30293 (antibody, V domains shown)
VH: EVQLVESGGGLVQPGGSLRLSCAASGFTFSSYSMNWVRQAPGKGLEWVSYISSSGTINYADSVKGRFTISRDNAKNSLYLQMNSLRAEDTAVYYCARHRIADSPSRAFDIWGQGTMVTVSS
VL: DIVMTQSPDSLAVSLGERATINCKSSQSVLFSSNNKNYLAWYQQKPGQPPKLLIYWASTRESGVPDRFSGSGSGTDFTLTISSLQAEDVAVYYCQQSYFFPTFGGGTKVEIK
B4: ADI-30296 (antibody, V domains shown)
VH: B3 VH with F29I, S30G, S31G, G55S, N58H, A101G, D102R
VL: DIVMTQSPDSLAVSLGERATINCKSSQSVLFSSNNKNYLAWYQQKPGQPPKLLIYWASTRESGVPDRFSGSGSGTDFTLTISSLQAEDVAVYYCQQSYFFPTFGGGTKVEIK
B5: ADI-30286 (antibody, V domains shown)
VH: EVQLLESGGGLVQPGGSLRLSCAASGFTFGPYGMSWVRQAPGKGLEWVSAISGSGASTWYADSVKGRFTISRDNSKNTLYLQMNSLRAEDTAVYYCAKDPGTHYSGYYYIWRYWGQGTLVTVSS
VL: EIVMTQSPATLSVSPGERATLSCRASQSVSSNLAWYQQKPGQAPRLLIYSASTRATGIPARFSGSGSGTEFTLTISSLQSEDFAVYYCQQYVPHPPFTFGGGTKVEIK
B6: ADI-27291 (antibody, V domains shown)
VH: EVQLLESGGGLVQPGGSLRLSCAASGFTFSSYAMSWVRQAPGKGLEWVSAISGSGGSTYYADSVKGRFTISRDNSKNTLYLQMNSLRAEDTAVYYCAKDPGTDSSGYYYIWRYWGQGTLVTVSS
VL: B5 VL
B7: ADI-30288 (antibody, V domains shown)
VH: B5 VH with Y60H, H103D, Y104S, S105T
VL: B5 VL
B8: ADI-27278 (antibody, V domains shown)
VH: EVQLVESGGGLVQPGGSLRLSCAASGFTFSSYSMNWVRQAPGKGLEWVSYISGSSSTIYYADSVKGRFTISRDNAKNSLYLQMNSLRAEDTAVYYCARHRIADSPSRAFDIWGQGTMVTVSS
VL: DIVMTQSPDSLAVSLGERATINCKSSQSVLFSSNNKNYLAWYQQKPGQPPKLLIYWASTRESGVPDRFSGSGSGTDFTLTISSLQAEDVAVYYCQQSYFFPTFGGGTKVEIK
B9: ADI-30268 (antibody, V domains shown)
VH: QVQLVQSGAEVKKPGASVKVSCKASGYTFGSYYMGWVRQAPGQGLEWMGIIDPSGGRTSYARKFQGRVTMTRDTSTSTVYMELSSLRSEDTAVYYCARARTPSSWPYGMDVWGQGTTVTVSS
VL: DIQMTQSPSSLSASVGDRVTITCRASQSINSYLNWYQQKPGKAPKLLIYAASSLQSGVPSRFSGSGSGTDFTLTISSLQPEDFATYYCQQSLLTPFTFGGGTKVEIK
B10: ADI-30267 (antibody, V domains shown)
VH: B9 VH with G30R, G35S, Y60F, R62Q, T101Y, S103E
VL: B9 VL
B11: ADI-27238 (antibody, V domains shown)
VH: B9 VH with G30T, G35S, D52N, R57S, R62Q, T101Y
VL: B9 VL
B12: ADI-27301 (antibody, V domains shown)
VH: QLQLQESGPGLVKPSETLSLTCTVSGGSISSSSYYWGWIRQPPGKGLEWIGSIYYSGSTYYNPSLKSRVTISVDTSKNQFSLKLSSVTAADTAVYYCAREAGRGTTGLLFDYWGQGTLVTVSS
VL: DIQMTQSPSTLSASVGDRVTITCRASQSISSWLAWYQQKPGKAPKLLIYKASSLESGVPSRFSGSGSGTEFTLTISSLQPDDFATYYCQQYGILPRTFGGGTKVEIK
B13: ADI-30311 (antibody, V domains shown)
VH: B12 VH with S30A, S33V, Y60W, G104T, T105G
VL: B12 VL
B14: ADI-27297 (antibody, V domains shown)
VH: QVQLVQSGAEVKKPGASVKVSCKASGYTFTSYYMHWVRQAPGQGLEWMGIINPSGGSTSYAQKFQGRVTMTRDTSTSTVYMELSSLRSEDTAVYYCARDHDIAAAGRLADYWGQGTLVTVSS
VL: DIQMTQSPSSVSASVGDRVTITCRASQGISSWLAWYQQKPGKAPKLLISAASSLQSGVPSRFSGSGSGTDFTLTISSLQPEDFATYYCQQAVILPITFGGGTKVEIK
B15: ADI-30306 (antibody, V domains shown)
VH: B12 VH with S33L, Y60F, L65F
VL: B12 VL

Biological target: T1, human TIGIT on CHO cells
Experiment: competition, CD155 blocking FACS

First: B1
Second: B2
The IC50 of the first is 2.9-fold lower: 0.281 nM for the first, 0.819 nM for the second.

Compared with B3, B4 is 3.1-fold lower in IC50: 0.859 nM for the first, 0.278 nM for the second.

First: B5
Second: B6
The IC50 of the first is 5.4-fold lower: 0.296 nM for the first, 1.61 nM for the second. The first is the more potent here.

B7 and B8 are within 1.5-fold of each other in IC50: 0.668 nM for the first, 0.586 nM for the second.

B9 and B10 are within 1.5-fold of each other in IC50: 0.221 nM for the first, 0.278 nM for the second.

First: B11
Second: B12
The IC50 of the first is 1.5-fold lower: 0.418 nM for the first, 0.641 nM for the second. The first is the more potent here.

B13 and B14 are within 1.5-fold of each other in IC50: 0.531 nM for the first, 0.603 nM for the second.

Biological target: T1, human TIGIT on CHO cells
Experiment: FACS, CHO-expressed antibody

B3 and B5 are within 1.5-fold of each other in EC50: 0.229 nM for the first, 0.176 nM for the second.

B7 and B9 are within 1.5-fold of each other in EC50: 0.186 nM for the first, 0.139 nM for the second.

Biological target: T2, human TIGIT-his
Experiment: BLI

Going from B3 to B5, the Kd rises from 0.789 nM to 1.76 nM (2.2-fold). The first binds more tightly here.

Compared with B7, B9 is 2.5-fold higher in Kd: 1.31 nM for the first, 3.29 nM for the second.

B15 was tested, and the Kd was 2.7 nM.

Biological target: T3, mouse TIGIT-his
Experiment: BLI

B15: no binding.

Each binder was assayed against monkey TIGIT-his (monkey) (assay: BLI).
Sequence of monkey TIGIT-his (monkey) (Q495A1 other isoform, or with tags, fused parts or gaps): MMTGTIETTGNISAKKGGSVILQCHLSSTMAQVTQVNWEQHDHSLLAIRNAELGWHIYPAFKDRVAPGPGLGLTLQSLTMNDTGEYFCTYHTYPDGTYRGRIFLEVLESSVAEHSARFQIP

Going from B3 to B5, the Kd falls from 34.9 nM to 10.6 nM (3.3-fold).

Compared with B7, B9 is 8.7-fold higher in Kd: 7.19 nM for the first, 62.3 nM for the second.

B15 was tested, and the Kd was 3.44 nM.

Biological target: T1, human TIGIT on CHO cells
Experiment: FACS

Going from B1 to B2, the EC50 rises from 0.326 nM to 0.587 nM (1.8-fold).

First: B3
Second: B4
The EC50 of the first is 2.4-fold higher: 0.9 nM for the first, 0.371 nM for the second. The second is the more potent here.

First: B5
Second: B6
The EC50 of the first is 1.9-fold lower: 0.446 nM for the first, 0.852 nM for the second.

Going from B7 to B8, the EC50 rises from 0.475 nM to 0.968 nM (2-fold). The first is the more potent here.

First: B9
Second: B10
The EC50 of the first is 2.2-fold lower: 0.329 nM for the first, 0.74 nM for the second. The first is the more potent here.

B11 and B12 are within 1.5-fold of each other in EC50: 0.751 nM for the first, 0.899 nM for the second.

First: B13
Second: B14
The EC50 of the first is 1.5-fold higher: 0.757 nM for the first, 0.496 nM for the second.

Biological target: T1, human TIGIT on CHO cells
Experiment: competition, CD155 blocking FACS
Remark: another data set of the same source

B3 and B5 are within 1.5-fold of each other in IC50: 0.251 nM for the first, 0.189 nM for the second.

First: B7
Second: B9
The IC50 of the first is 1.6-fold higher: 0.224 nM for the first, 0.14 nM for the second.

Biological target: T3, mouse TIGIT-his
Experiment: BLI
Remark: another data set of the same source

Compared with B3, B5 is 10-fold higher in Kd: 13 nM for the first, 134 nM for the second. The first binds more tightly here.

First: B7
Second: B9
The Kd of the first is 8.1-fold lower: 5.7 nM for the first, 46.4 nM for the second.
